This experiment addresses HLA class I-A2 molecule (human) (UniProt P04439). Description: T2 binding assay, peptide 50 µg/ml for 24 h, anti-HLA-A2 mAb, flow cytometry; cut off for positivity 100. Background: In flow cytometry, cells or beads pass a laser one at a time.

Regarding “PSA [42-51] (from UniProt P07288 66-75) (peptide)”, the T2 binding, relative fluorescence (mean intensity) stood at 51.4.

The values above are taken from patent US6946133.
